The results in this text go back to the RNAGym collection of RNA variant scans (doi:10.1073/pnas.2313332121).

B1: TPR t1 (parent)
chain: GACCAAUCUGCCCUCAGAGCUCGAGAACAUCUUCGGAUGCAGAGGAGGCAGGCUUCGGUGGCGCGAUAGCGCCAACGUCCUCAACCUCCAAUGCAUCCCACCACAUGAUGAUGCCUGAAGAGCCUUGGUUUUUUG

Variants of B1 are the subject of this data set. Put plainly: polymerase ribozyme fitness, log enrichment relative to wild type (log ratio); higher = more active; in vitro selection for triplet polymerase activity. The method in brief:
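Mutant libraries of both subunits of a heterodimeric triplet polymerase ribozyme were PCR-built, transcribed, and selected once in triplicate, with frozen incubation at −7 °C and capture of gel-excised extended constructs on streptavidin beads before RT-PCR. Illumina sequencing of input and output libraries was filtered to genotypes with ≥10 input reads and ≥1 read per output. Fitness is the logarithm of genotype enrichment over wild-type enrichment, using inverse-variance-weighted replicate averages. The logarithm is base 2.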
Turning to C123U G135U, the “polymerase ribozyme fitness (log ratio)” value is -0.4. As for C49U G77A, the figure is 0.352. As for G45A C79G, the figure is -1.88.

Turning to G51U A74G, the “polymerase ribozyme fitness (log ratio)” value is -2.72. As for U78A G113U, the figure is -3.98; as for C72U C76A C98U, -1.75.

Consider C8U A37G G61U U130A, for which the “polymerase ribozyme fitness (log ratio)” value was -0.107. As for G48U C73G, the figure is -1.73; as for C102A, -1.87; as for C13G C114A, -2.59. Turning to A26U G52U C56U, the “polymerase ribozyme fitness (log ratio)” value is -3.49. Then A74C G113U U133A, with -3.26; and C22G A95G C104U, with -2.37; and C20U G45A C53G, with -1.22. Take C15G U32C G36C C49G U59C G120C: the “polymerase ribozyme fitness (log ratio)” value is -4.02. Then U7A C12U A46U G58A, with -0.311; and G69C C102U A108C A111G C115U U130A, with -6.19. Then A100U G120U, with -1.23. As for G35U C80A, the figure is -6.8. For C4G C20U C94U A111U, the “polymerase ribozyme fitness (log ratio)” value is -5.59. As for C4A U9G G42C, the figure is -3.15; as for C49G C62A, -1.32. Then C79G U116A, with -4.35. As for C20G G44C C73U U78A A95C, the figure is -6.9; as for C12U G36C A46U C72G U112C G127U, -1.47; as for U81C C115G, -2.02. As for U38A G60U C62A C115G, the “polymerase ribozyme fitness (log ratio)” value is -6.12. Then A5G C72G, with -0.844; and C102A C124A U130A, with -0.438. Then C28U G120U, with -1.78; and A29U G60C C89A G110A, with -5.77. Consider C11U C72U, for which the “polymerase ribozyme fitness (log ratio)” value is -0.485. Then C11A C20U C40A A43U A119U, with -5.02; and C99G C124U, with -6.43. On to G35A C53G C70A C104U G117U C124G U126G, for which the “polymerase ribozyme fitness (log ratio)” value was -6.92. As for G39C G57A, the figure is -1.33; as for U54A U96A G113C C123U U126A, -4.27; as for A41U G52C U87A, -1.57. Then G19U C56G U106C, with -5.42; and C104U G122A, with 0.442.

With G19U C53G U54A G61A, the “polymerase ribozyme fitness (log ratio)” value was -2.73. Then C62U C76U G120C, with 0.583; and G47U U59C C101U U125G U126C, with -3.12; and U38A C40U C70U C101U C123G, with -1.32. As for A119C C124A, the figure is -2.4; as for G42C G45U U133A, -2.53.

Consider C8G G36A, for which the “polymerase ribozyme fitness (log ratio)” value is -0.023. Then A29G C56G C62A, with -4.43. Then U7G G10C C72G C82A, with -0.707. As for U9G C97G C104U, the figure is -2.99; as for C89G C115G G128A, -6.15; as for G60U G120C, 1.43.

For G10C G48A C64U G117U U125G, the “polymerase ribozyme fitness (log ratio)” value was -6.03. Then C73U C80G A118U, with -4.47; and G48A G69U C82G G113U U132A, with -2.33; and A16C U112G, with -2.88. As for G69U C82U A111C U112A G122C, the figure is -0.869; as for A6U C11G U55C, -0.352. As for C8A U9G A41G G69U, the figure is -0.102; as for C72G C94G, -1.73; as for G42U A43C C104U, -0.998. Consider C12A A91G U112A G127C, for which the “polymerase ribozyme fitness (log ratio)” value was -1.8. As for C20A C86A U112C G117A, the figure is -5.64.

In the case of C56G A95G A111U, the “polymerase ribozyme fitness (log ratio)” value was -2.63. As to C13G G19U G61U C73U G113U, the “polymerase ribozyme fitness (log ratio)” value was -5.34. As for G23A C49A, the figure is -5.5; as for G120U G122U, 0.765. As for C11G G60C, the figure is -0.354. As for C8G C40A C89A G120A U132A, the figure is 0.693. Take G60U A95G C115G: the “polymerase ribozyme fitness (log ratio)” value is -2.25. As for G45C U129C, the figure is -2.28. Then G48U A121C, with -0.0339; and A74U C115G U129A U130A, with -2.87; and C114A A119G, with 0.218.

With G71U C76G, the “polymerase ribozyme fitness (log ratio)” value was -2.91. As for C13U A24G G36U C53U C79G C98U C99A, the figure is -7.05; as for G45A C89G U116G, -4.12.

For the variant C12U C124U, the “polymerase ribozyme fitness (log ratio)” value came to 1.66. Then C13U G42U C56U C114G C123A, with -1.36; and C40A C94G G120A U129A, with -3.13. With C49U U96A U106A, the “polymerase ribozyme fitness (log ratio)” value is -1.67. Then G63C G117U, with -2.64. With U9G G51U G63C, the “polymerase ribozyme fitness (log ratio)” value was -3.1. Then A6U G48A C123A, with 0.913; and G39A C82A, with -0.962. As for U9C C11U, the figure is 0.404; as for C72U U81C G93C A119U G120C, -0.213. Then A111G U130G, with -0.2. For the variant U78C U87A U130C, the “polymerase ribozyme fitness (log ratio)” value was found to be 0.517. As for U7G C12G C13U A46U, the figure is -0.346. Then G44C C70G A119U, with -5.47; and C62A U130C, with -1.71; and U30C C70U C82G, with -6.42. For U9C A41G C64U C86A, the “polymerase ribozyme fitness (log ratio)” value was -0.494. As for C11U C49A G107U G113C, the “polymerase ribozyme fitness (log ratio)” value is -6.14. As for C53U C73U C79A G127C, the figure is -1.71; as for A18G A105G U112C G117C U132A, -3.97; as for C4U G10C G69U U125A, -2.15. For A16U C53A A66C, the “polymerase ribozyme fitness (log ratio)” value is -2.72. Then U9G A27C C114A, with -3.98; and G52U U106C, with -1.2; and G63C C85G U87C, with -2.82. Then U96C, with 0.0976; and C72A U78G U133A, with 0.102; and U7C, with 0.304. G48A A50C U78A A119G G120C: the “polymerase ribozyme fitness (log ratio)” value was 0.118. As for C8U G47C C53G U109G, the figure is -6.29. Then C80G C124G, with -4.49; and A46G U87C, with 0.254. Then G10C U87C, with -1.18. On to C13G C56U C86U U130A, for which the “polymerase ribozyme fitness (log ratio)” value was -3.33. Then C85G, with -1.74; and G42A G44C A46U G71U A111G G120A, with -3.41.

As for C80A A108G, the “polymerase ribozyme fitness (log ratio)” value is -5.73. Then U112A C114G, with -0.0146; and G93C G113C, with -3.08. As for A27U G44C C72U C104U, the figure is -4.18; as for C53A C98U, -0.601. As for C22A A84U, the figure is -5.54. Turning to C72G C88A A90U, the “polymerase ribozyme fitness (log ratio)” value is -2.14.

On to C72U C88A, for which the “polymerase ribozyme fitness (log ratio)” value was found to be 0.024. Take C12A U32A C34G C102U: the “polymerase ribozyme fitness (log ratio)” value is -6.82.

Turning to C70A U106C C114A, the “polymerase ribozyme fitness (log ratio)” value is -4.64. Then C20U G48A C53U C99U, with -5.43; and G35A C85U C94A, with -6.51. Then G10A C62U G69A A121U G127U, with -1.42; and C98U U126G G128U, with -2.42; and C13A A16U, with -0.236. Regarding C12U C53U C98U U132A, the “polymerase ribozyme fitness (log ratio)” value was -0.748. As for C97G U130G, the figure is -4.67; as for C20G C89G C98A G120C, -2.55; as for C15A C73G, -3.16. Then A2U C49A G71A C82A G120U, with -3.9. Then U38G A46C C101U, with -2.55; and C8U C79A, with -0.138. Turning to U9G C64U, the “polymerase ribozyme fitness (log ratio)” value is 0.223. Then C70A C85U C88U G122U C124G, with -2.37; and G57A C97U, with -1.83. As for G10A A43G, the figure is -1.53; as for U21A G42C U59C U130G, -2.41.

In the case of A41G G42U C73G C104A, the “polymerase ribozyme fitness (log ratio)” value is -5.43.

For the variant G60U G113A, the “polymerase ribozyme fitness (log ratio)” value is -0.847. Take G63A A100U: the “polymerase ribozyme fitness (log ratio)” value is -1.77.

Regarding C49U A74C G122A, the “polymerase ribozyme fitness (log ratio)” value was -1.62. On to C40U C53A G60A G69U, for which the “polymerase ribozyme fitness (log ratio)” value was -0.0565. Then C12G A37U G61C A75G, with -1.16.

On to C76A U78A A91U U112G, for which the “polymerase ribozyme fitness (log ratio)” value was -3.63. Then C72U C73A A83U U109A, with -5.82; and A24G C88A C115A, with -1.84. Then G48C G52U U55G C76U A100C U125G, with -4.57. Regarding A16G A27U, the “polymerase ribozyme fitness (log ratio)” value was -4.63. As for U14A G47C, the figure is -2.72; as for G110C U132A, -3.46; as for C97G G107C A111U, -7.12. Then A2U G44U C70U A90U, with -5.08; and G44U A91U, with -2.13; and G48C G60A C94G C115U, with -3.74. As for G48U U55G, the figure is -0.43.

In the case of C88A U109C, the “polymerase ribozyme fitness (log ratio)” value was -5.25. Then C13G G58U G60C G117U C123A, with -2.6; and A26G G57A, with -2.54; and G35C C49A U112G, with -6.16. As for G48A C86G A118C, the figure is -3.12; as for C20A G52A G60A C98A C99U A105G C114A, -5.87. Then G63C U125C, with -3.57; and A50C G61U C79G, with -2.93; and A18U C20G A50U C72G G113A, with -4.8.
